Literature values in patent US20260055200A1, “COMBINATION THERAPIES” (Alligator Bioscience AB, priority 2022, published 2026).
Read-outs that look alike come from different tables or passages of the source.

Assays:
[1] = tested on: previously untreated pancreatic cancer; settings: cited from earlier work
[2] = tested on: metastatic pancreatic cancer; settings: standard first-line treatment; cited from earlier work
[3] = tested on: metastatic pancreatic cancer; settings: PRODIGE 4, 342 patients; cited from earlier work
[4] = tested on: metastatic pancreatic cancer; settings: MPACT study; cited from earlier work
[5] = tested on: previously untreated metastatic pancreatic cancer; settings: cited from earlier work
[6] = in combination with Gem-NabPac with or without nivolumab

Selicrelumab: CD40 agonistic monoclonal antibody, with an IgG2 format
DLT ([1]; 0.2 mg/kg dose level, with gemcitabine): One DLT, a cerebrovascular accident
proportion of patients with liver enzyme elevations ([1]; all grade 1-2, with gemcitabine): approximately ⅔
dose up to which the combination was well tolerated ([1]; in combination with gemcitabine): up to 0.2 mg/kg
complete responses ([1]; with gemcitabine): no complete responses (CR) were observed
patients with cytokine release syndrome in relation to the infusion ([1]; with gemcitabine): 20 of the 22
response rate ([1]; with gemcitabine): 19%

Nc1ccn([C@@H]2O[C@H](CO)[C@@H](O)C2(F)F)c(=O)n1 [gemcitabine]
median overall survival (mOS) [2]: about 6 months
mOS [3]: 6.8 months
objective response rate (ORR) [3]: 9.4%
ORR [4]: 7%
mOS [4]: 6.7 months

B1: APX005M: CD40 agonistic monoclonal antibody, with a mutated IgG1 format for improved binding to FcγR2b (antibody, chains of the INN, looked up, V domains shown)
VH: QVQLVESGGGVVQPGRSLRLSCAASGFSFSSTYVCWVRQAPGKGLEWIACIYTGDGTNYSASWAKGRFTISKDSSKNTVYLQMNSLRAEDTAVYFCARPDITYGFAINFWGPGTLVTVSS
VL: DIQMTQSPSSLSASVGDRVTIKCQASQSISSRLAWYQQKPGKPPKLLIYRASTLASGVPSRFSGSGSGTDFTLTISSLQPEDVATYYCQCTGYGISWPIGGGTKVEIK
Complete Response, patients ([5]; Total (N = 24)): 0
Not Evaluable, patients (%) ([5]; Total (N = 24)): 1 (4%)
Partial Response, patients (%) ([5]; Total (N = 24)): 13 (54%)
Progressive Disease, patients (%) ([5]; Total (N = 24)): 1 (4%)
Stable Disease, patients (%) ([5]; Total (N = 24)): 9 (38%)
circulating mutant KRAS DNA [5, 6]: marked and rapid decrease
immune profiling of PBMCs, myeloid compartment [5, 6]: rapid activation of DCs in most patients
